How the values were obtained:
[1] = molecular target: native human CD20 on isolated normal human B cells (human) (UniProt P11836); experiment: Scatchard analysis, unlabeled against 125I-IgG on human B cells, Donor 1
[2] = molecular target: native human CD20 on isolated normal human B cells (human) (UniProt P11836); experiment: Scatchard analysis, unlabeled against 125I-IgG on human B cells, Donor 2
[3] = molecular target: native human CD20 on isolated normal human B cells (human) (UniProt P11836); experiment: Scatchard analysis, unlabeled against 125I-IgG on human B cells, Donor 3
[4] = molecular target: His-tagged human CD20 expressed in E. coli (human) (UniProt P11836); experiment: SPR (BIAcore-3000), rituximab IgG immobilised on CM5, CD20 in 0.1% DDM as analyte, 1:1 model
[5] = molecular target: His-tagged human CD20 expressed in E. coli (human) (UniProt P11836); experiment: ELISA, CD20 coated on the plate, rituximab titrated, detection with HRP goat anti-human F(ab')2, absorbance 450 nm
[6] = molecular target: human CD20 expressed with the LE leader (LE.CD20), leader and His-tag removed with thrombin (human) (UniProt P11836); experiment: as above
[7] = molecular target: human CD20 expressed with the sLE leader (sLE.CD20), leader removed with thrombin (human) (UniProt P11836); experiment: as above
[8] = molecular target: Reduced, Reoxidized; experiment: ELISA, reduced and re-oxidized CD20 coated on the plate, rituximab titrated, detection with HRP goat anti-human F(ab')2, absorbance 450 nm
[9] = molecular target: native human CD20 on isolated normal human B cells (human) (UniProt P11836); experiment: Scatchard analysis, unlabeled against 125I-Fab on human B cells, Donor 4
[10] = molecular target: native human CD20 on isolated normal human B cells (human) (UniProt P11836); experiment: Scatchard analysis, unlabeled against 125I-Fab on human B cells, Donor 5
[11] = molecular target: His-tagged human CD20 expressed in E. coli (human) (UniProt P11836); experiment: SPR (BIAcore-3000), rituximab Fab immobilised on CM5, CD20 in 0.1% DDM as analyte, 1:1 model
[12] = molecular target: C2S mutant of human CD20 (Cys111Ser, Cys220Ser), His-tagged (human) (UniProt P11836); experiment: SPR (BIAcore-3000), rituximab Fab immobilised on CM5, C2S-CD20 in 0.1% DDM as analyte, 1:1 model
[13] = molecular target: C2S mutant of human CD20 (Cys111Ser, Cys220Ser), His-tagged (human) (UniProt P11836); experiment: SPR (BIAcore-3000), rituximab Fab immobilised on CM5, affinity purified C2S-CD20 as analyte, 1:1 model

Sequence of Reduced, Reoxidized (CD20 polypeptide, as listed by the source): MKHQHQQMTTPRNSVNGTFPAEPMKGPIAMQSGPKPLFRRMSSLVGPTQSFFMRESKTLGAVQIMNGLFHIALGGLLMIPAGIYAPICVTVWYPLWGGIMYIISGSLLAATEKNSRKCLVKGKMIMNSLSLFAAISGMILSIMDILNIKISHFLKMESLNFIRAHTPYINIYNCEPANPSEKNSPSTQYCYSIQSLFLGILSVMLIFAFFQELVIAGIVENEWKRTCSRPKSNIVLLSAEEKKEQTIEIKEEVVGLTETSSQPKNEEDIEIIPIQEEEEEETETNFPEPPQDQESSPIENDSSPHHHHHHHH

Row | Kd [1] [µM] | Kd [2] [µM] | Kd [3] [µM] | Ka [4] [M⁻¹] | EC50 (read off the curve) [5] [µM] | EC50 (read off the curve) [6] [µM] | EC50 (read off the curve) [7] [µM] | EC50 (read off the curve) [8] [µM] | Kd [9] [µM] | Kd [10] [µM] | Ka [11] [M⁻¹] | Kd [11] [µM] | Ka [12] [M⁻¹] | Kd [12] [µM] | Ka [13] [M⁻¹] | Kd [13] [µM] | Substance
1 | 0.00032 | 0.00072 | 0.00127 | 6.6e+06 | 0.0005 | 0.0005 | 0.0004 | 0.05 |  |  |  |  |  |  |  |  | rituximab full length antibody
2 |  |  |  |  |  |  |  |  | 0.052 | 0.063 | 3.5e+06 | 0.28 | 4.4e+06 | 0.23 | 5.4e+06 | 0.19 | rituximab Fab
